According to the RNAGym collection of RNA variant scans (doi:10.7554/elife.80360):

B1: Hairpin Ribozyme (parent)
chain: GUCCUCUUUCACGUGCGCGUGAAAGAGAGAAGUGAACCAGAGAAACACACGUUGUGGUAUAUUACCUGGUA

Variants of: B1
Experiment: self-cleavage, relative activity (ratio to wild type); higher = more cleavage; co-transcriptional

Row | Variant | self-cleavage
1 | GUCCUCUUUCACGUGCGCGUGAAAGAAAGAAGUGAACAAGAGAAACACACGUUGUGGUAUAUUACCUGGUA | 0.127
2 | GUCCUCUUUCACGUGCGCGUGAAAGAAAGAAGUGAACCAGAGAAAUACACGUUGUGGUAUAUUACCUGGUA | 0.127
3 | GUCCUCUUUCACGUGCGCGUGAAAGAAAGAAGUGAACCAGAGAAACAGACGUUGUGGUAUAUUACCUGGUA | 0.151
4 | GUCCUCUUUCACGUGCGCGUGAAAGAAAGAAGUGAACCAGAGAAACACAGGUUGUGGUAUAUUACCUGGUA | 0.131
5 | GUCCUCUUUCACGUGCGCGUGAAAGAAAGAAGUGAACCAGAGAAACACACGUUGUGGUAUAUUAGCUGGUA | 0.161
6 | GUCCUCUUUCACGUGCGCGUGAAAGAAAGAAGUGAACCAGAGAAACACACGUUGUGGUAUAUUACGUGGUA | 0.133
7 | GUCCUCUUUCACGUGCGCGUGAAAGAAAAAAGUGAACCAGAGAAACACACGUUGUGGUAUAUUACCUGGUA | 0.189
8 | GUCCUCUUUCACGUGCGCGUGAAAGAAAGAAUUGAACCAGAGAAACACACGUUGUGGUAUAUUACCUGGUA | 0.0607
9 | GUCCUCUUUCACGUGCGCGUGAAAGAAAGAAGUAAACCAGAGAAACACACGUUGUGGUAUAUUACCUGGUA | 0.551
10 | GUCCUCUUUCACGUGCGCGUGAAAGAAAGAAGUGAACCAAAGAAACACACGUUGUGGUAUAUUACCUGGUA | 0.143
11 | GUCCUCUUUCACGUGCGCGUGAAAGAAAGAAGUGAACCAGAUAAACACACGUUGUGGUAUAUUACCUGGUA | 0.147
12 | GUCCUCUUUCACGUGCGCGUGAAAGAAAGAAGUGAACCAGAGAAACACACGUUAUGGUAUAUUACCUGGUA | 0.221
13 | GUCCUCUUUCACGUGCGCGUGAAAGAAAGAAGUGAACCAGAGAAACACACGUUUUGGUAUAUUACCUGGUA | 0.213
14 | GUCCUCUUUCACGUGCGCGUGAAAGAAAGAAGUGAACCAGAGAAACACACGUUGUCGUAUAUUACCUGGUA | 0.101
15 | GUCCUCUUUCACGUGCGCGUGAAAGAAAGAAGUGAACCAGAGAAACACACGUUGUUGUAUAUUACCUGGUA | 0.156
16 | GUCCUCUUUCACGUGCGCGUGAAAGAAAGAAGUGAACCAGAGAAACACACGUUGUGUUAUAUUACCUGGUA | 0.157
17 | GUCCUCUUUCACGUGCGCGUGAAAGAAAGAAGUGAACCAGAGAAACACACGUUGUGGUAUAUUACCUAGUA | 0.241
18 | GUCCUCUUUCACGUGCGCGUGAAAGAAAGAAGUGAACCAGAGAAACACACGUUGUGGUAUAUUACCUGUUA | 0.182
19 | GUCCUCUUUCACGUGCGCGUGAAAGAAAGAAGCGAACCAGAGAAACACACGUUGUGGUAUAUUACCUGGUA | 0.0597

Row | Variant | self-cleavage
20 | GUCCUCUUUCACGUGCGCGUGAAAGAAAGAAGGGAACCAGAGAAACACACGUUGUGGUAUAUUACCUGGUA | 0.0835
21 | GUCCUCUUUCACGUGCGCGUGAAAGAAAGAAGUGAACCAGAGAAACACACGUUGAGGUAUAUUACCUGGUA | 0.169
22 | GUCCUCUUUCACGUGCGCGUGAAAGAAAGAAGUGAACCAGAGAAACACACGUUGUGGGAUAUUACCUGGUA | 0.151
23 | GUCCUCUUUCACGUGCGCGUGAAAGAAAGAAGUGAACCAGAGAAACACACGUUGUGGUAAAUUACCUGGUA | 0.334
24 | GUCCUCUUUCACGUGCGCGUGAAAGAAAGAAGUGAACCAGAGAAACACACGUUGUGGUAGAUUACCUGGUA | 0.213
25 | GUCCUCUUUCACGUGCGCGUGAAAGAAAGAAGUGAACCAGAGAAACACACGUUGUGGUAUACUACCUGGUA | 0.13
26 | GUCCUCUUUCACGUGCGCGUGAAAGAAAGAAGUGAACCAGAGAAACACACGUUGUGGUAUAGUACCUGGUA | 0.221
27 | GUCCUCUUUCACGUGCGCGUGAAAGAAAGAAGUGAACCAGAGAAACACACGUUGUGGUAUAUUACCAGGUA | 0.0995
28 | GUCCUCUUUCACGUGCGCGUGAAAGAAAGAAGUGAACCAGAGAAACACACGUUGUGGUAUAUUACCGGGUA | 0.175
29 | GUCCUCUUUCACGUGCGCGUGAAAGACAGAAGUGAACCAGAGAAACACACGUUGUGGUAUAUUACCUGGUA | 0.172
30 | GUCCUCUUUCACGUGCGCGUGAAAGACAGCAGUGAACCAGAGAAACACACGUUGUGGUAUAUUACCUGGUA | 0.0463
31 | GUCCUCUUUCACGUGCGCGUGAAAGACAGAUGUGAACCAGAGAAACACACGUUGUGGUAUAUUACCUGGUA | 0.223
32 | GUCCUCUUUCACGUGCGCGUGAAAGACAGAAGUGCACCAGAGAAACACACGUUGUGGUAUAUUACCUGGUA | 0.143
33 | GUCCUCUUUCACGUGCGCGUGAAAGACAGAAGUGGACCAGAGAAACACACGUUGUGGUAUAUUACCUGGUA | 0.181
34 | GUCCUCUUUCACGUGCGCGUGAAAGACAGAAGUGACCCAGAGAAACACACGUUGUGGUAUAUUACCUGGUA | 0.113
35 | GUCCUCUUUCACGUGCGCGUGAAAGACAGAAGUGAGCCAGAGAAACACACGUUGUGGUAUAUUACCUGGUA | 0.14
36 | GUCCUCUUUCACGUGCGCGUGAAAGACAGAAGUGAUCCAGAGAAACACACGUUGUGGUAUAUUACCUGGUA | 0.128
37 | GUCCUCUUUCACGUGCGCGUGAAAGACAGAAGUGAACCCGAGAAACACACGUUGUGGUAUAUUACCUGGUA | 0.0945
38 | GUCCUCUUUCACGUGCGCGUGAAAGACAGAAGUGAACCAGGGAAACACACGUUGUGGUAUAUUACCUGGUA | 0.234
